The nanobody polyreactivity screen of Harvey et al. (2022)

assay: yeast display, Sf9 membrane polyspecificity reagent, FACS + sequencing; frameworks hold sequencing errors
Procedure, shortened: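 A synthetic nanobody library was expressed on Saccharomyces cerevisiae BJ5465 by galactose induction for 36–48 hours. The library was stained for 1 hour at 4 °C with 10% biotinylated, detergent-solubilized Sf9 membrane reagent and enriched with streptavidin microbeads before FACS. Low and high (top ~1%) gates were set on anti-HA fluorescence for expression and streptavidin fluorescence for reagent binding, and each polyreactivity label reflects the gate of origin.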

Row | Sequence | polyreactivity (PSR sort gate)
1 | QVQLVESGGGLVQAGGSLRLSCASSGRTFAYNALGWYREAPGKERELVAAISASGGSTYYADSVKGRFTISRDNAKNTVYLQMNSLKPEDTAVYYCAAYVRSAYYAIHVDYWGQGTQVTVSA | low polyreactivity
2 | QVQLVESGGGLVQAGGSLRLSCASSGRTFNFYAMGWYRQAPGKERELVAAISHGDSTYYADSVKGRFTISRDNAKNTVYLQMNSLKPEDTAVYYCAASQKYYLLKYEYWGQGTQVTVSS | low polyreactivity
3 | QVQLVESGGGLVQAGGSLRLSCASSGRTFPGNAMGWYRQAPGKERELVAAISWSGTRTYYADSVKGRFTISRDNAKNTVYLQMNSLKPEDTAVYYCNVVVKGAWDYYPYAYWGQGTQVTVSA | high polyreactivity
4 | QVQLVESGGGLVQAGGSLRLSCASSGRTFQVNAMGWYRQAPGKERELVAAISASDGSTYADSVKGRFTISRDNAKNTVYLQMNSLKPEDTAVYYCNKAAYGGHRTSEQVGWVYLYDYWGQGTQVTVSS | low polyreactivity
5 | QVQLVESGGGLVQAGGSLRLSCASSGRTFRSYAMGWYRQAPGKERELVAAITYSGGNTYYADSVKGRFTISRDNAKNTVYLQMNSLKPEDTAVYYCAYLKTPRGYDYWGQGTQVTVSS | high polyreactivity
6 | QVQLVESGGGLVQAGGSLRLSCASSGRTFYINAMVWYRQAPGKERELVAAISIRGGRTYYADSVKGRFTISRDNAKNTVYLQMISLKPEDTAVYYCAADYGSLRQRTLYEYWGQGTQVTVSS | low polyreactivity
7 | QVQLVESGGGLVQAGGSLRLSCASSGRTISHNAMGWYRQAPGKERELVAAISRSGGRTYYADSVKGRFTISRYNAKNTVYLQMNSLKPEDTAVYYCAAEYFDGSTYSYYYWGQGTQVTVSS | high polyreactivity
8 | QVQLVESGGGLVQAGGSLRLSCASSGSIFGSNAMGWYRQAPVKERELVAAITWSDGSTYYADSVKGRFTISRDNAKNTVYLQMNSLKPEDTAVYYCAVVWRGGYRWPYEYWGQGTQVTVSS | low polyreactivity
9 | QVQLVESGGGLVQAGGSLRLSCASSGSIFKAYAMGLSRQAPGKERELVAAIRGSGGRTYYADSVKGRFTISRDYAKNTVYLQMNSLKPEDTAVYYCNTVRSTPNGLDYDYWGQGTQVTVSS | low polyreactivity
10 | QVQLVESGGGLVQAGGSLRLSCASSGSIFNYNSMGGYRQAPGKERELVAGITTSGGSTYYADSVKGRFTISRDNAKNTVYLQMNSLKPEDTAVYYCAGYDYISSTYFLDDFWGQGSQVTVSS | low polyreactivity
11 | QVQLVESGGGLVQAGGSLRLSCASSGSIFPEYDMVWYRQAPGKERELVASISSGGSSTYYADSVKGRFTISRDNAMNTVYLQMNSLKPEATAVYYCARRRSYKRGFDYWGQGTQVTVSS | low polyreactivity
12 | QVQLVESGGGLVQAGGSLRLSCASSGSIFQYYVMGWYRPAPGKERELVAAMRRSGTTYYADSVKGRFTISRDNAKHTLDLQMNSLKPEDTAVYYCNKVRGQEPSNYDYWGQGTQVTVSS | low polyreactivity
13 | QVQLVESGGGLVQAGGSLRLSCASSGSIFRYNAMGWYRQAPGKEREFVAAISYSGGRTYYADSLKGRFTISRDNAKNNVYLQMNIQKPEDTAVYYCAARLKRPFSGYDNWGQGTQVSVSS | high polyreactivity
14 | QVQLVESGGGLVQAGGSLRLSCASSGSIFYDNAMGWYRQAPGKDRELVAAITVTGGSTYYADSVKGRFTISRDNAKNTVYLQMNSLKPEDTAVFYCAADPDYFDYWGQGTQVTVSS | low polyreactivity
15 | QVQLVESGGGLVQAGGSLRLSCASSGSIFYVYAMGWYRQAPGKERELVATIDWSGGSTYYADSVKGRFTISRDNAKNTVYLQMNSLKPEDTAVYYCAAYGLYGYRRRYRVSFTPYDYWGQGTQVNVSS | low polyreactivity
16 | QVQLVESGGGLVQAGGSLRLSCASSGSISAVNTMGWYRQAPGKERELVATISYSTASTYYADSVKGRFTMSRDNAKKTVYLQMNSLKPEDTAVYYCNKDGRWYAYNSEYDHWGQGTQVTVSS | low polyreactivity

Row | Sequence | polyreactivity (PSR sort gate)
17 | QVQLVESGGGLVQAGGSLRLSCASSGSTFKYYAMGWYRQAPGKERELVAAISSGGSTYYADSVKGRFTISRDNAKNTVYLLMNSLKPEDTAVYDCAARGYYGNFSGSGYWGQGTQVTVSS | high polyreactivity
18 | QVQLVESGGGLVQAGGSLRLSCASSGTFHKYAMGWYRQAPGKERELVASISRSGGSTSYADSVKGRFTISRDNAKNNVYLQMNSLKPEDTAVYYCNTPWGAYKYDYWGQGTEVTVSS | high polyreactivity
19 | QVQLVESGGGLVQAGGSLRLSCASSGYIFSLSGMGWYRQAPGKERELVAAITGSGGGTYADSVKGRFTISRDNAKNTVYLQMISLKPEDTAVYYCAAGGYRRRFWPIYDYWGQGTQVSVSS | low polyreactivity
20 | QVQLVESGGGLVQAGGSLRLSCASSGYTFALYAKGWYRQAPGKERELVAAITDSDGSTYADSVKGRFTITRDNAKNTVYLQMNSVKPEDTAVYYCAAESEQWYSYVLSYDWEYDYWGQGTQVTVSS | low polyreactivity
21 | QVQLVESGGGLVQAGGSLRLSCASSRFNFRSYAMGWYRHPPGKERELVAAISRSGGSTYYADSVKGRFTISRDNAKNTVYLQMNSLKPEDTAVYYCAAEYRIPYFFTYGYWGQGTQVTVSS | high polyreactivity
22 | QVQLVESGGGLVQAGGSLRLSCASYGSIFAYYTMGWYRQAPGKARELVATISSRGGSKNYADSVKGRFTISRDNAKNPVYLQMNSLRPEDTAVYYCYAYHYQSGITVSEYDYWGQGTQVTVSS | high polyreactivity
23 | QVQLVESGGGLVQAGGSLRLSCATSGFTFGWNYMGWYRQAPGKERELVAAITWSGGSTYYADSVKGRFTISRDNAKNTVYLQMNSLKPEDTAVYYCAAVVSDYVWRYEYWGQGSQVTVSS | low polyreactivity
24 | QVQLVESGGGLVQAGGSLRLSCATSGRTFSQYAMGWYRQAPGKERELVAVISGSGGSTYYADSVKGRFTISRDNAKNTVYLQINSLKPEDTAVYYCAKRATSWHQYDYWGQGTQVTVSS | low polyreactivity
25 | QVQLVESGGGLVQAGGSLRLSCATTGSTFQVYTMGWNRQAPGKEREFVASISWSGSSTYYADSVKGRFTISRDNAKNTVYLQMNSLKPEDTAVYYCAARARIKYLADPGYYWGQGTQVTVSS | high polyreactivity
26 | QVQLVESGGGLVQAGGSLRLSCAVSGRIFRRNVMGWYRQAPGKDRELVAGISDSGDSTYYADSVKVRFTISRDNAKNTVYLQMNSLKPEDTAVYYCNARYSTTYYGTIYRGMDYWGQGTQVNVSS | high polyreactivity
27 | QVQLVESGGGLVQAGGSLRLSCDAAGLIFRLNAMGWYRPAPGKERELVAAISFSGGGTYYADSVKGRFTISRDNAKNTVYLQMNSLKPEDTAVYFCAADEYAVYYYYNYEYWGQGTQVTVSS | high polyreactivity
28 | QVQLVESGGGLVQAGGSLRLSCDASGFIFKGNAMGWYRHAPRKERELVAAITNRGGGTYYADSVKGRFTISRDNAKNTVYLQMNSLKPEDTAVYYCAKAYTRPFHPYDYWGQGTQVTVSS | high polyreactivity
29 | QVQLVESGGGLVQAGGSLRLSCDASGFIFRYYDMGWYRQAPGKERELVAAISWRGGRTYYADSVKGRFTISRDNAKNTVYLQMNSLKPEVTAVYYCAAGFSLWTYPKPYGEDSWGQGTQVTVSS | high polyreactivity
30 | QVQLVESGGGLVQAGGSLRLSCDASGFIFYYYDMGWYRQAPGKERELVASIDNGGDTNYADSVKGRFTISLDNAKNTVYLQMNSLKPEDTAVYYCAAPYSPLWYPGGDYWRQGTQVTVSS | low polyreactivity
31 | QVQLVESGGGLVQAGGSLRLSCDASGFNIASYDMGWYRQAPGKERELVAAISKGGGRTYYADSVKGRFTISRDNAKNTVYLQMKSLKPEDTAVYYCAAYAPYPRRAYDYWGQGTQVTVSS | low polyreactivity
